Reference: paper PMC12499436, “Human Schlafen 14 Cleavage of Short Double‐Stranded RNAs Underpins its Antiviral Activity” (Advanced Science, 2025)

What was measured:
SLFN14mut = target: T1, SLFN14mut (Homo sapiens, UniProt P0C7P3 1-912, E211A;C365S;C775S;C808S); assay: cryo-EM structure; 2.88 A; Zn2+ (2 per dimer); no active-site ion density; BLI: PBS, 0.02% P20, 0.1% BSA, 25 C; EMSA: 25 mM HEPES pH 7.5, 50 mM NaCl, 8% glycerol, 2 mM MgCl2, 1 mM DTT, 4 C, 50 nM ssDNA; cryo-EM: RNA in 40 mM Tris-HCl pH 8.0, 20 mM KCl, 4 mM MgCl2, 2 mM DTT, protein:RNA 1:1.2, 4 C overnight; details: protein: recombinant; tags: 6xHis-SUMO (N-term); chain copies: 2; hairpin, 12-bp stem, 7-nt loop
T1 sequence: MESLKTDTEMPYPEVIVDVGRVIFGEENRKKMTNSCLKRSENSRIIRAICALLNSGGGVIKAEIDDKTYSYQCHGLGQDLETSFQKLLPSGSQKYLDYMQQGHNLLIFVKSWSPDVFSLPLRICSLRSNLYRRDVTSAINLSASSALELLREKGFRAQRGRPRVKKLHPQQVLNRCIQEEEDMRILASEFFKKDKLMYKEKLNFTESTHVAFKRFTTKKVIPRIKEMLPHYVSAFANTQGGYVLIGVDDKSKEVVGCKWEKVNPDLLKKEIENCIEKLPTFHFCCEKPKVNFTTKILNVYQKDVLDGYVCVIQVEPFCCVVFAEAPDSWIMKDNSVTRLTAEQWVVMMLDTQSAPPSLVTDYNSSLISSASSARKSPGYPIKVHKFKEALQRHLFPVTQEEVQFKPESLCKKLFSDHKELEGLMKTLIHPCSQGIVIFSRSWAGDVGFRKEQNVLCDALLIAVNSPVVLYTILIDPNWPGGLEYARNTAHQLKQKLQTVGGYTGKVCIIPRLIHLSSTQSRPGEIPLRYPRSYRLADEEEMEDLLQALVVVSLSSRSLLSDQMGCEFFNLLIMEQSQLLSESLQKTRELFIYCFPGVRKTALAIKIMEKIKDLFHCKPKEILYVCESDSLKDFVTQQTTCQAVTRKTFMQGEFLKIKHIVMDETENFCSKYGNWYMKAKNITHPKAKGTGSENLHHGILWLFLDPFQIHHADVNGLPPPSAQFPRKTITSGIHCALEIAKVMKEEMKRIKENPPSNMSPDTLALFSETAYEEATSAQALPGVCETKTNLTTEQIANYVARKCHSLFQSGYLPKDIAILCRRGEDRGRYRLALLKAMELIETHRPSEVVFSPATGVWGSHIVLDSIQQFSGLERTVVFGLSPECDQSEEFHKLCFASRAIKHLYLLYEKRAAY

[1] = target: the molecule itself; assay: SEC; recombinant strep-strep-SUMO tagged SLFN14 in solution with 150 mM NaCl; gel-filtration standards
[2] = target: the molecule itself; assay: cryo-EM structure; apo SLFN14^mut, single-particle analysis, 2.84 Å
SLFN11 (WT) = target: T2, SLFN11 (WT) (Homo sapiens, UniProt Q7Z7L1 1-901); assay: BLI; steady state; kdis 4.8e-4 /s; BLI: PBS, 0.02% P20, 0.1% BSA, 25 C; EMSA: 25 mM HEPES pH 7.5, 50 mM NaCl, 8% glycerol, 2 mM MgCl2, 1 mM DTT, 4 C, 50 nM ssDNA; cryo-EM: RNA in 40 mM Tris-HCl pH 8.0, 20 mM KCl, 4 mM MgCl2, 2 mM DTT, protein:RNA 1:1.2, 4 C overnight; details: protein: recombinant; tags: Strep-II-SUMO (N-term); chain copies: 2
T2 sequence: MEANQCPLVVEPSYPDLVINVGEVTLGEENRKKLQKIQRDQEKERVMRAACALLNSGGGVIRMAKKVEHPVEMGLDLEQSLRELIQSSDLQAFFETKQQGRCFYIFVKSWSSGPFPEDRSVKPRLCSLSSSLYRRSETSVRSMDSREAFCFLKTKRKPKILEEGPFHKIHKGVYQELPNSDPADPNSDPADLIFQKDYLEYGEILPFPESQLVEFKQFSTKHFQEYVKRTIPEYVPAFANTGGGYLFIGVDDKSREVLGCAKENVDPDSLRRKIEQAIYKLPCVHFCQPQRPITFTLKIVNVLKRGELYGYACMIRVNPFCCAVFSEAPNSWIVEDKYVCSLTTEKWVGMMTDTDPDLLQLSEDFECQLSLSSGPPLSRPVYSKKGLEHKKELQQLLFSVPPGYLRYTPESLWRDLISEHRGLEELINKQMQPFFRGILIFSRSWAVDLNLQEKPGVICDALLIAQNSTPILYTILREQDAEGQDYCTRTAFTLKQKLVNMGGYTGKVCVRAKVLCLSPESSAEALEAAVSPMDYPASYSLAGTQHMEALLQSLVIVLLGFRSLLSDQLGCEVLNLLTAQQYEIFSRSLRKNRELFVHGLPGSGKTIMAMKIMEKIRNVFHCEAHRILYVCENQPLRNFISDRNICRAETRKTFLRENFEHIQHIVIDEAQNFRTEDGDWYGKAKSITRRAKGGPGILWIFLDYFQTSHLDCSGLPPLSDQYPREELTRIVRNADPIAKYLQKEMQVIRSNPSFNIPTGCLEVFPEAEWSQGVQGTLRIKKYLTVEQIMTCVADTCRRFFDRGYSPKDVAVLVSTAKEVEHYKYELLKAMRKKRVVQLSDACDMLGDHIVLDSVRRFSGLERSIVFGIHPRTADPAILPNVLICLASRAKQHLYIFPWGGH

SLFN14 (WT) = target: T3, SLFN14 (WT) (Homo sapiens, UniProt P0C7P3 1-912); assay: BLI; steady state; kdis 1.3e-3 /s; BLI: PBS, 0.02% P20, 0.1% BSA, 25 C; EMSA: 25 mM HEPES pH 7.5, 50 mM NaCl, 8% glycerol, 2 mM MgCl2, 1 mM DTT, 4 C, 50 nM ssDNA; cryo-EM: RNA in 40 mM Tris-HCl pH 8.0, 20 mM KCl, 4 mM MgCl2, 2 mM DTT, protein:RNA 1:1.2, 4 C overnight; details: protein: recombinant; tags: Strep-Strep-SUMO (N-term); chain copies: 2
T3 sequence: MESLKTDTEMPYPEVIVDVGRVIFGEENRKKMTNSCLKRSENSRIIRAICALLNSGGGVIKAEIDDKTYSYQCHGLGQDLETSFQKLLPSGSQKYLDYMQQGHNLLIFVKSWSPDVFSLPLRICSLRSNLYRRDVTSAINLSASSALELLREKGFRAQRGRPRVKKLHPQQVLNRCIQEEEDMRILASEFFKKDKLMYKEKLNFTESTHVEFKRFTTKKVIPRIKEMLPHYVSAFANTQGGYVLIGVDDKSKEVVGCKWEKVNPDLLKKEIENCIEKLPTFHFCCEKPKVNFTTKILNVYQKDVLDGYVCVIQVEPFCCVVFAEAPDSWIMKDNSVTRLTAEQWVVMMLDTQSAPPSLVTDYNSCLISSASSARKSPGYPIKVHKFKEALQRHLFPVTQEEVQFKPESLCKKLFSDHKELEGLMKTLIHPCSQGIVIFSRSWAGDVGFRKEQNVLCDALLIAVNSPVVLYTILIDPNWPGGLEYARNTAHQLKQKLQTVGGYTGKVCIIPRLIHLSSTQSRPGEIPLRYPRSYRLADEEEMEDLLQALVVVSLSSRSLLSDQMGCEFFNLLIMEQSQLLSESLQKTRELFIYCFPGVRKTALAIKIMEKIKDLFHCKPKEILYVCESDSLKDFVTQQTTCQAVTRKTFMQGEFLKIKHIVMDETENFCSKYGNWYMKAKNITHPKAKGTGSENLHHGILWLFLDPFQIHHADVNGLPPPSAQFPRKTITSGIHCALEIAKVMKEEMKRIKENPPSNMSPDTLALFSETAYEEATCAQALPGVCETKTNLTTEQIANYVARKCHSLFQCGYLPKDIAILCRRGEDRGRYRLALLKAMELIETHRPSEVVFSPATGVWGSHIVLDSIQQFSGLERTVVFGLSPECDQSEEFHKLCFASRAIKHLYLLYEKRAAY

B1: short hairpin RNA (hRNA) (structured_RNA)
RNA: GCAUCAGCUACCUAAAGUUCAGGUAGCUGAUG
binding result (SLFN14mut): binds

B2: human SLFN14, wild type (strep-strep-SUMO tagged) (enzyme, UniProt P0C7P3 1-912, looked up)
chain: MESLKTDTEMPYPEVIVDVGRVIFGEENRKKMTNSCLKRSENSRIIRAICALLNSGGGVIKAEIDDKTYSYQCHGLGQDLETSFQKLLPSGSQKYLDYMQQGHNLLIFVKSWSPDVFSLPLRICSLRSNLYRRDVTSAINLSASSALELLREKGFRAQRGRPRVKKLHPQQVLNRCIQEEEDMRILASEFFKKDKLMYKEKLNFTESTHVEFKRFTTKKVIPRIKEMLPHYVSAFANTQGGYVLIGVDDKSKEVVGCKWEKVNPDLLKKEIENCIEKLPTFHFCCEKPKVNFTTKILNVYQKDVLDGYVCVIQVEPFCCVVFAEAPDSWIMKDNSVTRLTAEQWVVMMLDTQSAPPSLVTDYNSCLISSASSARKSPGYPIKVHKFKEALQRHLFPVTQEEVQFKPESLCKKLFSDHKELEGLMKTLIHPCSQGIVIFSRSWAGDVGFRKEQNVLCDALLIAVNSPVVLYTILIDPNWPGGLEYARNTAHQLKQKLQTVGGYTGKVCIIPRLIHLSSTQSRPGEIPLRYPRSYRLADEEEMEDLLQALVVVSLSSRSLLSDQMGCEFFNLLIMEQSQLLSESLQKTRELFIYCFPGVRKTALAIKIMEKIKDLFHCKPKEILYVCESDSLKDFVTQQTTCQAVTRKTFMQGEFLKIKHIVMDETENFCSKYGNWYMKAKNITHPKAKGTGSENLHHGILWLFLDPFQIHHADVNGLPPPSAQFPRKTITSGIHCALEIAKVMKEEMKRIKENPPSNMSPDTLALFSETAYEEATCAQALPGVCETKTNLTTEQIANYVARKCHSLFQCGYLPKDIAILCRRGEDRGRYRLALLKAMELIETHRPSEVVFSPATGVWGSHIVLDSIQQFSGLERTVVFGLSPECDQSEEFHKLCFASRAIKHLYLLYEKRAAY
notes: human Schlafen 14 (SLFN14), Gene ID 342618, wild type, codon-optimised gene; also called WT-SLFN14; Schlafen 14; source: HEK293F, transiently transfected, purified (Strep-Tactin, SEC); not shown: strep-strep, N-terminal, kept; SUMO, N-terminal, kept
stoichiometry N [1]: 2

B3: SLFN14 E211A-C365S-C775S-C808S (SLFN14^mut) (enzyme, human, UniProt P0C7P3 1-912, looked up)
chain: MESLKTDTEMPYPEVIVDVGRVIFGEENRKKMTNSCLKRSENSRIIRAICALLNSGGGVIKAEIDDKTYSYQCHGLGQDLETSFQKLLPSGSQKYLDYMQQGHNLLIFVKSWSPDVFSLPLRICSLRSNLYRRDVTSAINLSASSALELLREKGFRAQRGRPRVKKLHPQQVLNRCIQEEEDMRILASEFFKKDKLMYKEKLNFTESTHVAFKRFTTKKVIPRIKEMLPHYVSAFANTQGGYVLIGVDDKSKEVVGCKWEKVNPDLLKKEIENCIEKLPTFHFCCEKPKVNFTTKILNVYQKDVLDGYVCVIQVEPFCCVVFAEAPDSWIMKDNSVTRLTAEQWVVMMLDTQSAPPSLVTDYNSSLISSASSARKSPGYPIKVHKFKEALQRHLFPVTQEEVQFKPESLCKKLFSDHKELEGLMKTLIHPCSQGIVIFSRSWAGDVGFRKEQNVLCDALLIAVNSPVVLYTILIDPNWPGGLEYARNTAHQLKQKLQTVGGYTGKVCIIPRLIHLSSTQSRPGEIPLRYPRSYRLADEEEMEDLLQALVVVSLSSRSLLSDQMGCEFFNLLIMEQSQLLSESLQKTRELFIYCFPGVRKTALAIKIMEKIKDLFHCKPKEILYVCESDSLKDFVTQQTTCQAVTRKTFMQGEFLKIKHIVMDETENFCSKYGNWYMKAKNITHPKAKGTGSENLHHGILWLFLDPFQIHHADVNGLPPPSAQFPRKTITSGIHCALEIAKVMKEEMKRIKENPPSNMSPDTLALFSETAYEEATSAQALPGVCETKTNLTTEQIANYVARKCHSLFQSGYLPKDIAILCRRGEDRGRYRLALLKAMELIETHRPSEVVFSPATGVWGSHIVLDSIQQFSGLERTVVFGLSPECDQSEEFHKLCFASRAIKHLYLLYEKRAAY
notes: human Schlafen 14 (SLFN14), Gene ID 342618, full length, with four mutations introduced for cryo-EM; No tag cleavage is described in the purification; also called apo SLFN14; SLFN14 apoenzyme; source: Sf21 (baculovirus, pFastBac1), purified (Ni-NTA, heparin, SEC)
binding result [2]: binds

B4: 50-nt ssDNA (BLI) (ssDNA)
DNA: AATTGGTCGTAGCAAGCTCTAGCACCGCTTAAACGCACGTACGCGCTGTC
Kd (SLFN11 (WT)): 37 nM | Kd (SLFN14 (WT)): 9 nM
